{"source": "paper PMC3814152", "about": "(Molecular Biology of the Cell, 2013)", "proteins": {"B1": {"name": "Mzt1-His6 (natural protein)", "chain": "MSESTKETIEVLYEIGTLLGTELDKTTLSLCISLCENNVHPEAIAQIIREIRMAQEQTVDTEPS"}}, "target": "the molecule itself", "test": "SEC"}
{"protein": "B1", "values": [{"measurement": "stoichiometry N", "result": "~12"}]}
